In publication PMC3084716, “Different Conformations of Phosphatase and Tensin Homolog, Deleted on Chromosome 10 (PTEN) Protein within the Nucleus and Cytoplasm of Neurons”:
Where no end group is shown, it is not given here.

T1: PTEN peptide 33-47 amide (human and mouse (same sequence), UniProt P60484)
T1 chain: IAMGFPAERLEGVYR-NH2

B1: PTENz14 (structured_DNA)
DNA: CGGAATTCCGAGCGTGGGCGTGAGCCCTAAACACAAGTCCGCAGGGGTGTGGTAATATTCGCAGTTGTGTGTACGCCCACGCTCGAG
B2: PTENz7 (structured_DNA)
DNA: CGGAATTCCGAGCGTGGGCGTGGTCATACCGCGCCTATCGAACTCGCCACTCGCGTGCAGCTCTGTGTAGGTACGCCCACGCTCGAG

Experiments:
PTEN peptide 33-47 amide [1] = target: T1, PTEN peptide 33-47 amide; assay: co-precipitation on antibody-Sepharose, real-time PCR; peptide bound to anti-PTEN antiserum; 1.8e11 molecules bound; Filter binding: 50 mM Tris (pH not given), 1 h, 40 µl, protein 0.5 mg/ml (Fig. 2E: GST-PTEN 25 µM), PBS washes; co-precipitation 1 h at room temperature, 1 µM aptamer; pull-down from homogenate with 250 nM aptamer, salmon sperm DNA, RIPA (1:2)/PBS washes; blots in PBS-BSA 2%; details: tags: C-terminal amide; label: 5'-biotin or 32P (assay dependent); hairpin; 13 bp stem from the constant regions
[2] = target: T2, GST-PTEN (amino-terminal phosphatase domain) (Homo sapiens, UniProt P60484 1-200); assay: filter binding, Scatchard; data not shown; Filter binding: 50 mM Tris (pH not given), 1 h, 40 µl, protein 0.5 mg/ml (Fig. 2E: GST-PTEN 25 µM), PBS washes; co-precipitation 1 h at room temperature, 1 µM aptamer; pull-down from homogenate with 250 nM aptamer, salmon sperm DNA, RIPA (1:2)/PBS washes; blots in PBS-BSA 2%; details: protein: recombinant; tags: GST (N-terminal, pGEX2T); label: 5'-biotin or 32P (assay dependent); hairpin; 13 bp stem from the constant regions
T2 sequence (P60484 1-200): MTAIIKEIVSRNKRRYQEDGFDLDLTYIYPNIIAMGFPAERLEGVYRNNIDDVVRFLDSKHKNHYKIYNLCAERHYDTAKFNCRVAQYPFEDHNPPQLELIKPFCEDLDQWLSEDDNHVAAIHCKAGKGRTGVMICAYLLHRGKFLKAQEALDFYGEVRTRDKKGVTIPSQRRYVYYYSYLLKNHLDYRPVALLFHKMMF

PTEN peptide 33-47 amide [3] = target: T1, PTEN peptide 33-47 amide; assay: filter binding; Filter binding: 50 mM Tris (pH not given), 1 h, 40 µl, protein 0.5 mg/ml (Fig. 2E: GST-PTEN 25 µM), PBS washes; co-precipitation 1 h at room temperature, 1 µM aptamer; pull-down from homogenate with 250 nM aptamer, salmon sperm DNA, RIPA (1:2)/PBS washes; blots in PBS-BSA 2%; details: tags: C-terminal amide; label: 5'-biotin or 32P (assay dependent); hairpin; 13 bp stem from the constant regions
[4] = target: T2, GST-PTEN (amino-terminal phosphatase …); assay: filter binding, Scatchard; called affinity constant; Filter binding: 50 mM Tris (pH not given), 1 h, 40 µl, protein 0.5 mg/ml (Fig. 2E: GST-PTEN 25 µM), PBS washes; co-precipitation 1 h at room temperature, 1 µM aptamer; pull-down from homogenate with 250 nM aptamer, salmon sperm DNA, RIPA (1:2)/PBS washes; blots in PBS-BSA 2%; details: protein: recombinant; tags: GST (N-terminal, pGEX2T); label: 5'-biotin or 32P (assay dependent); hairpin; 13 bp stem from the constant regions

| Binder | binding signal (PTEN peptide 33-47 amide [1]) | Kd [2] | binding result (PTEN peptide 33-47 amide [3]) | Kd [4] |
| --- | --- | --- | --- | --- |
| B1 | ~20 fold over background | 54 nM |  |  |
| B2 |  |  | binds | 75 nM |
